Measured values: US20080107662A1

Columns and labels:
[1] = molecular target: Maltose Binding Protein (MBP) (E. coli) [MBP: P0AEX9]; test: ELISA control without serum, antigen MBP
[2] = molecular target: MBP-ABL (E. coli) [MBP: P0AEX9]; test: ELISA control without serum, antigen MBP-ABL
38C13 IgM Id = test: ELISA control without serum, antigen 38C13 IgM Id

Secondary Ab only (antibody)
ELISA reading [1]: 0.055
ELISA reading [2]: 0.052
ELISA reading (38C13 IgM Id): 0.09
